Measurements from publication PMC1888804 (Nucleic Acids Research, 2007).
Residue numbers refer to the chain shown, from its start. Names and notes keep the numbering of the source. Like-named read-outs stand apart in the source and are kept apart here. One block for each molecule: values may come before it.

Key:
Test in all cases: SPR
[1] = biological target: α subunit of Escherichia coli DNA polymerase III holoenzyme (E. coli) (UniProt P10443)
[2] = biological target: T1, α subunit of Escherichia coli DNA polymerase III holoenzyme (E. coli, UniProt P10443 1-1160)
[3] = biological target: T1, α subunit of Escherichia coli DNA …; remark: listed apart in the source
[4] = biological target: T1, α subunit of Escherichia coli DNA …; remark: listed apart in the source

B1: τCpep32 (synthetic 32-mer peptide of the C-terminus of τ) (peptide, UniProt P06710 612-643, looked up)
peptide: AQARESIIADNNIQTLRRFFDAELDEESIRPI
Kd [2]: 3800 nM

B2: τC16 (Domain V of the τ subunit of E. coli DNA polymerase III holoenzyme, residues 499–643) (domain or fragment)
chain: MKALEHEKTPELAAKLAAEAIERDPWAAQVSQLSLPKLVEQVALNAWKEESDNAVCLHLRSSQRHLNNRGAQQKLAEALSMLKGSTVELTIVEDDNPAVRTPLEWRQAIYEEKLAQARESIIADNNIQTLRRFFDAELDEESIRPI
Kd [2]: 0.13 nM

B3: bio-τC16 (N-terminally biotinylated τC16) (domain or fragment, E. coli)
chain: B2 chain
modifications: biotinylated on the N-terminal biotin-tag
Kd [3]: 0.264 nM
Kd [4]: 0.265 nM
koff [4]: 0.000402 s⁻¹
kon [4]: 1.52e+06 M⁻¹ s⁻¹

B6: τC16[I618T] (domain or fragment, E. coli)
chain: B2 chain with I121T
Kd [2]: 0.98 nM

B7: τC16[D636G] (domain or fragment, E. coli)
chain: B2 chain with D139G
Kd [2]: 3.8 nM

B8: τC16[S617P] (domain or fragment, E. coli)
chain: B2 chain with S120P
Kd [2]: 160 nM

B10: τC14 (folded core of Domain V of τ, residues 499–625) (domain or fragment, E. coli)
chain: MKALEHEKTPELAAKLAAEAIERDPWAAQVSQLSLPKLVEQVALNAWKEESDNAVCLHLRSSQRHLNNRGAQQKLAEALSMLKGSTVELTIVEDDNPAVRTPLEWRQAIYEEKLAQARESIIADNNIQ
Kd [2]: > 10000 nM

B12: τC16Δ11 (τC16 with a C-terminal deletion of 11 residues) (domain or fragment, E. coli)
chain: MKALEHEKTPELAAKLAAEAIERDPWAAQVSQLSLPKLVEQVALNAWKEESDNAVCLHLRSSQRHLNNRGAQQKLAEALSMLKGSTVELTIVEDDNPAVRTPLEWRQAIYEEKLAQARESIIADNNIQTLRRFFD
Kd [2]: > 10000 nM

The next lines start with the values.

Kd [1]: 6700 nM
Molecule: τC16Δ7 (τC16 with a C-terminal deletion of seven residues) (from UniProt P06710 499-636) (domain or fragment)

Kd [2]: 1500 nM
B4: τC16[L627P] (domain or fragment, E. coli)
chain: B2 chain with L130P

Kd [2]: 99 nM
B5: τC16[F631I] (domain or fragment, E. coli)
chain: B2 chain with F134I

Kd [2]: 2.4 nM
B9: τC16[L635P] (domain or fragment, E. coli)
chain: B2 chain with L138P

Kd [4]: > 1000 nM
B11: bio-τC14 (biotinylated τC14) (domain or fragment, E. coli)
chain: B10 chain
modifications: biotinylated on the N-terminal biotin-tag
